# Assay results reported in patent publication US6635459B1, “Nucleotide sequences encoding pinoresinol/lariciresinol reductase proteins and their methods of use” (Washington State University Research Foundation, priority 1996, dated 2003).
# T1: 35 kDa form of (+)-pinoresinol/(+)-lariciresinol reductase (Forsythia intermedia, UniProt P93143)
# T1 construct: pure enzyme (after MonoQ anion-exchange chromatography); from tissue; host or cells: Forsythia intermedia stems
# T1 sequence (P93143 2-312): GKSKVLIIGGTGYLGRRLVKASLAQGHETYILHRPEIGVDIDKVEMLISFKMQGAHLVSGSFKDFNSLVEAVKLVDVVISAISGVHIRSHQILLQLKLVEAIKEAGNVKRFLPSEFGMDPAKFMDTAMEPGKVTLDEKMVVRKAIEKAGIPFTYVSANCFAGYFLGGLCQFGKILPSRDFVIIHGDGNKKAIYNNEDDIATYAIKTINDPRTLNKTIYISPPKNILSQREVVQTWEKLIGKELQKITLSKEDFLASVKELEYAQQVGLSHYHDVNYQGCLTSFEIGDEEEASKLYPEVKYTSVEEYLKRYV
# B1: Dirigent protein: 78-kD protein purified from Forsythia intermedia stems that guides stereoselective coupling of E-coniferyl alcohol radicals to (+)-pinoresinol (protein)
# chain: MVSKTQIVALFLCFLTSTSSATYGRKPRPRRPCKELVFYFHDVLFKGNNYHNATSAIVGSPQWGNKTAMAVPFNYGDLVVFDDPITLDNNLHSPPVGRAQGMYFYDQKNTYNAWLGFSFLFNSTKYVGTLNFAGADPLLNKTRDISVIGGTGDFFMARGVATLMTDAFEGDVYFRLRVDINLYECW
# B2: plr-Tp1: Thuja plicata (−)-pinoresinol/(−)-lariciresinol reductase (SEQ ID NO:62) expressed in E. coli (protein)
# chain: MDKKSRVLIVGGTGYIGKRIVNASISLGHPTYVLFRPEVVSNIDKVQMLLYFKQLGAKLIEASLDDHQRLVDALKQVDVVISALAGGVLSHHILEQLKLVEAIKEAGNIKRFLPSEFGMDPDIMEHALQPGSITFIDKRKVRRAIEAASIPYTYVSSNMFAGYFAGSLAQLDGHMMPPRDKVLIYGDGNVKGIWVDEDDVGTYTIKSIDDPQTLNKTMYIRPPMNILSQKEVIQIWERLSEQNLDKIYISSQDFLADMKDKSYEEKIVRCHLYQIFFRGDLYNFEIGPNAIEATKLYPEVKYVTMDSYLERYV
# B3: plr-Tp2: Thuja plicata (+)-pinoresinol/(+)-lariciresinol reductase (SEQ ID NO:64) expressed in E. coli (protein)
# chain: MEESSRVLIVGGTGYIGRRIVKASIALGHPTFILFRKEVVSDVEKVEMLLSFKKNGAKLLEASFDDHESLVDAVKQVDVVISAVAGNHMRHHILQQLKLVEAIKEAGNIKRFVPSEFGMDPGLMEHAMAPGNIVFIDKIKVREAIEAASIPHTYISANIFAGYLVGGLAQLGRVMPPSEKVILYGDGNVKAVWVDEDDVGIYTIKAIDDPHTLNKTMYIRPPLNILSQKEVVEKWEKLSGKSLNKINISVEDFLAGMEGQSYGEQIGISHFYQMFYRGDLYNFEIGPNGVEASQLYPEVKYTTVDSYMERYL
# Columns and labels:
# [1] = tested on: HW-1; conditions: cited from earlier work
# [2] = tested on: HIV; conditions: cited from earlier work
# [3] = tested on: cAMP-phosphodiesterase; conditions: cited from earlier work
# [4] = biological target: 36 kDa form of (+)-pinoresinol/(+)-lariciresinol reductase (Forsythia x intermedia, UniProt P93143); experiment: Initial velocity studies, reductase 36 kDa isoform; conditions: 36 kDa form of the enzyme; NADPH 80 μM, pH 7.4, 30° C.
# Description: (§1) Kinetic Parameters. […] The initial velocity studies were carried out individually utilizing the two isoforms of the enzyme, and individually employing both (+)-pinoresinol and (+)-lariciresinol as substrates. Initial velocity studies were performed in triplicate experiments, using 50 mM Bis-Tris Propane buffer, pH 7.4 containing 5 mM dithiothreitol, pure enzyme (after MonoQ anion-exchange chromatography), ten different substrate concentrations (between 8.8 and 160 μM) at a constant NADPH concentration (80 μM). Incubations were carried out at 30° C. for 10 min (within the linear kinetic range). Kinetic parameters were determined from Lineweaver-Burk plots.
# [5] = biological target: T1, 35 kDa form of (+)-pinoresinol/(+)-lariciresinol reductase; experiment: Initial velocity studies, reductase 35 kDa isoform; type: biochemical; conditions: 35 kDa form of the enzyme; NADPH 80 μM, pH 7.4, 30° C.
# Description: as §1
# [6] = tested on: E-coniferyl alcohol; experiment: E-coniferyl alcohol coupling assay (oxidant with/without dirigent protein); type: biochemical, Forsythia intermedia; conditions: dirigent protein (770 pmol ml^−1) alone, no added oxidant; 6 hour assay
# Description: E-coniferyl alcohol coupling assay. E-[9-^3H]Coniferyl alcohol (4 μmol ml^−1, 29.3 kBq) was incubated with a 120-kD laccase (previously purified from Forsythia intermedia stem tissue) over a […], in the presence and absence of the dirigent protein, as follows. Each assay consisted of E-[9-^3H]coniferyl alcohol (4 μmol ml^−1, 29.3 kBq, 7.3 MBq mole liter^−1; or 2 μmol ml^−1, 14.7 kBq with fraction III), the 78-kD dirigent protein, an oxidase or oxidant, or both [final concentrations: 770 pmol ml^−1 dirigent protein; 10.7 pmol protein ml^−1 Forsythia laccase; 12 μg protein ml^−1 fraction III; 0.5 μmol ml^−1 FMN; 0.5 μmol ml^−1 FAD; 1 and 10 μmol ml^−1 ammonium peroxydisulfate] in buffer (0.1 M MES-HEPES-sodium acetate, pH 5.0) to a total volume of 250 μl. The enzymatic reaction was initiated by addition of E-[9-^3H]coniferyl alcohol. Controls were performed in the presence of buffer alone.
# After one hour incubation at 30° C. while shaking, the assay mixture was extracted with ethyl acetate (EtOAc, 500 μl) containing (±)-pinoresinols (7.5 μg), (±)-dehydrodiconiferyl alcohols (3.5 μg) and erythro/threo (±)-guaiacylglycerol 8-O-4′-coniferyl alcohol ethers (7.5 μg) as radiochemical carriers and ferulic acid (15.0 μg) as an internal standard. After centrifugation (13,800 g, 5 min), the EtOAc soluble components were removed and the extraction procedure repeated with EtOAc (500 μl). The EtOAc soluble components from each assay were combined, the solutions evaporated to dryness in vacuo, redissolved in methanol-water solution (1:1; 100 μl) with an aliquot (50 μl) thereof subjected to reversed-phase column chromatography (Waters, Nova-Pak C18, 150 mm by 3.8 mm). The elution conditions were as follows: acetonitrile/3% acetic acid in H2O (5:95) from 0 to 5 min, then linear gradients to ratios of 10:90 between 5 and 20 min, then to 20:80 between 20 and 45 min and finally to 50:50 between 45 and 60 min, at a flow rate of 8.8 ml min^−1 cm^−2.
# Fractions corresponding to E-coniferyl alcohol, erythro/threo (±)-guaiacylglycerol 8-O-4′-coniferyl alcohol ethers, (±)-dehydrodiconiferyl alcohols and (±)-pinoresinols were individually collected, aliquots removed for liquid scintillation counting, and the remainder freeze-dried. Pinoresinol-containing fractions were redissolved in methanol (100 μl) and subjected to chiral column chromatography (Daicel, Chiralcel OD, 50 mm by 4.6 mm) with a solution of hexanes and ethanol (1:1) as the mobile phase (flow rate 3 ml min^−1 cm^−2), whereas dehydrodiconiferyl alcohol fractions were subjected to Chiralcel OF (250 mm by 4.6 mm) column chromatography eluted with a solution of hexanes and isopropanol (9:1) as the mobile phase (flow rate 2.4 ml min^−1 cm^−2), the radioactivity of the eluent being measured with a flow-through detector (Radiomatic, Model A120).
# Ammonium peroxydisulfate readily undergoes homolytic cleavage (A. Usaitis, R. Makuska, Polymer 35:4896 (1994)) and is routinely used as an one-electron oxidant in acrylamide polymerization. Ammonium peroxydisulfate was first incubated with E-[9-^3H]coniferyl alcohol (4 μmol ml^−1, 29.3 kBq) for 6 hours using the E-coniferyl alcohol coupling assay procedure described above.
# [7] = tested on: E-coniferyl alcohol; experiment: Kinetic characterization of conversion of E-coniferyl alcohol to (+)-pinoresinol with dirigent protein and oxidase/oxidant; type: biochemical, Forsythia intermedia; conditions: (+)-pinoresinol formation from E-coniferyl alcohol, dirigent protein 770 pmol ml^−1 alone or with Fraction III 12 μg protein ml^−1, laccase 2.07 pmol ml^−1, FMN 0.5 μmol ml^−1
# Description: Assays were carried out as described in Example 3 by incubating a series of E-[9-^3H]coniferyl alcohol concentrations (between 8.00 and 0.13 μmol ml^−1, 7.3 MBq mole literl) with dirigent protein (770 pmol ml^−1) alone and in presence of Forsythia laccase (2.1 pmol ml^−1), fraction III (12 μg protein ml^−1), or FMN (0.5 μmol ml^−1). Assays with dirigent protein, in presence or absence of FMN, were incubated at 30° C. for 1 hour, whereas assays with Forsythia laccase or fraction III in presence or absence of dirigent protein were incubated at 30° C. for 15 min. If free-radical capture by the dirigent protein is the operative mechanism, the Michaelis-Menten parameters obtained will only represent formal rather than true values, because the highest free-energy intermediate state during the conversion of E-coniferyl alcohol into (+)-pinoresinol is still unknown and the relation between the concentration of substrate and that of the corresponding intermediate free-radical in open solution has not been delineated.
# Bearing these qualifications in mind, we estimated formal Km and Vmax values for the dirigent protein preparation.
# [8] = tested on: E-sinapyl alcohol; experiment: E-sinapyl alcohol coupling assay (oxidant with/without dirigent protein); type: biochemical, Forsythia intermedia; conditions: dirigent protein (770 pmol ml^−1) alone, no added oxidant; 6 hour assay
# Description: Investigation of Substrate-Specific Stereoselectivity. The coupling stereoselectivity was substrate specific. Neither E-p-[9-^3H]coumaryl (4 μmol ml^−1, 44.5 kBq) or E-[8-^14C]sinapyl alcohols (4 μmol ml^−1, 8.3 kBq), which differ from E-coniferyl alcohol only by a methoxyl group substituent on the aromatic ring, yielded stereoselective products when incubated for 6 hours with FMN and ammonium peroxydisulfate respectively, in the presence and absence of the dirigent protein. Incubations were carried out as described above with the following modifications: E-p-[9-^3H]coumaryl (4 μmol ml^−1, 44.5 kBq) or E-[8-^14C]sinapyl alcohols (4 μmol ml^−1, 8.3 kBq) were used as substrates and, after 6 hour incubation at 30° C., the reaction mixture was extracted with EtOAc but without addition of radiochemical carriers.
# [9] = tested on: E-coniferyl alcohol; experiment: (+)-Pinoresinol-forming activity from E-[9-3H]coniferyl alcohol; type: biochemical, Forsythia intermedia
# [10] = tested on: (±)-pinoresinols; experiment: Substrate specificity of recombinant Thuja plicata reductases expressed in E. coli; type: biochemical; conditions: β-galactosidase fusion in E. coli total protein extract, 3 hour incubation at 30° C.
molecule,measurement,setting,value
(−)-trachelogenin,inhibition of in vitro replication of HW-1,[1],inhibits
same,effectiveness against HIV (reverse transcriptase inhibitory activities),[2],effective against HIV
COc1cc(C[C@H]2COC(=O)[C@@H]2Cc2ccc(O)c(OC)c2)ccc1O [matairesinol],cAMP-phosphodiesterase inhibition,[3],inhibit cAMP-phosphodiesterase
"COc1cc(C[C@]2(O)C(=O)OC[C@H]2Cc2ccc(OC)c(OC)c2)ccc1O (single isomer, unassigned) [(+)-enantiomer]",inhibition of in vitro replication of HW-1,[1],much less effective
(+)-pinoresinol,Km,[4],23 ± 1.3 µM
same,Vmax (apparent maximum velocity),[4],17.3±0.5 μmol h^−1 mg^−1 of protein
same,Km,[5],27 ± 1.5 µM
same,Vmax (apparent maximum velocity),[5],16.2±0.4 μmol h^−1 mg^−1 of protein
B1,(+)-Pinoresinol,[6],55 ± 1 nmol/mL
same,(±)-Dehydro-diconiferyl alcohols,[6],8 ± 1 nmol/mL
same,(±)-Guaiacyl-glycerol 8-O-4′-coniferyl alcohol ethers,[6],5 ± 1 nmol/mL
same,(±)-Pinoresinols,[6],0 nmol/mL
same,E-Coniferyl alcohol in dimer equivalents depleted,[6],61 ± 20 nmol/mL
same,Total dimers,[6],68 ± 3 nmol/mL
same,Vmax,[7],0.02 ± 0.02 mol s^−1 mol^−1 dirigent protein
same,Vmax,[7]; listed as dirigent protein,0.02±0.02 mol s^−1 mol^−1 dirigent prote
same,Km,[7]; read-out: Formal Km,10000 ± 6000 µM
same,E-Sinapyl alcohol in dimer equivalents depleted,[8],110 ± 10 nmol/mL
same,Racemic (±)-syringaresinols,[8],50 ± 10 nmol/mL
same,(+)-pinoresinol-forming activity,[9]; E-[9-3H]coniferyl alcohol as substrate for one hour,< 5 % of total activity loaded onto the POROS SP-M column
same,(+)-pinoresinol formation (residual oxidizing capacity),"[9]; protein by itself, over 10 hours",< 5%
B2,substrate specificity,[10],can use both (−)-pinoresinol and (+)-pinoresinol as substrates
B3,substrate specificity,[10],same substrate specificity and product formation as the original Forsythia intermedia reductase
